Values belong to the binder of their own block, whether it stands above or below them.
Biological target: T1, mouse PD-1 (mouse, UniProt Q02242 25-288)
T1 sequence (looked up): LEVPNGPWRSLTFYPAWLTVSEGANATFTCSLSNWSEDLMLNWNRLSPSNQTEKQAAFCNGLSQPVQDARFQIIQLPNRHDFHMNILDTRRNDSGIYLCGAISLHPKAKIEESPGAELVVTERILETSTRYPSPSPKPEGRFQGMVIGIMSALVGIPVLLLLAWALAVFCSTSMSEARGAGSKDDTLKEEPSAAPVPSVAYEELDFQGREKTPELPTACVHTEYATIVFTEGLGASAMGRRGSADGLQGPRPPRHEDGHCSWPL
Test: cell-based or functional assay

CD69 expression; OT-I CD8 T cells with SIINFEKL-pulsed BMDDC, 0.5 micromolar, 57 h: 61% | proliferation (CFSE dilution); OT-I CD8 T cells with SIINFEKL-pulsed BMDDC, 0.5 micromolar, 57 h: 90.1%
B1: LoSTIM 3 (bispecific antibody, mouse IgG2a, kappa)
heavy: DVALTQTPVAQPVTLGDQASISCRSSQSLVHSNGRTYLEWYLQKPGQSPQLLIYKVSNRFSGVPDRFIGSGSGSDFTLTISRVEPEDLGVYYCFQATHDPNTFGAGTKLELKGGGGSGGGGSGGGGSQVQLQQSGAELVKPGSSVKISCKASGYTFTSHFIHWIKQQPGNGLEWIGGIYPGDGDTEYNQQFNGKATLTADKSSSTAYMRLSSLTSEDSAVYFCATRVPSYWFFDFWGPGTMVTVSSGGGGAGGGGEVQVVETGGGLVQPGSSLKLSCESSGFTFSSTWMNWVRQAPGKGLEWVALVKDKYSNYEANYAESVKGRFIISRDDSKNRVYLQMNTLRDQDTATYHCTRSRGYKNWYFDFWGPGTMVTVSSAKTTAPSVYPLAPVCGDTTGSSVTLGCLVKGYFPEPVTLTWNSGSLSSGVHTFPAVLQSDLYTLSSSVTVTSSTWPSQSITCNVAHPASSTKVDKKIEPRGPTIKPCPPCKCPAPNLEGGPSVFIFPPKIKDVLMISLSPIVTCVVVDVSEDDPDVQISWFVNNVEVHTAQTQTHREDYNSTLRVVSALPIQHQDWMSGKAFACAVNNKDLPAPIERTISKPKGSVRAPQVYVLPPPEEEMTKKQVTLTCMVTDFMPEDIYVEWTNNGKTELNYKNTEPVLDSDGSYFMYSKLRVEKKNWVERNSYSCSVVHEGLHNHHTTKSFSRTPGK
light: DIQMTQSPPSLSASLGDKVTITCQASQNINNYIAWYQQKPGKAPGLLILYTSTLVSGTPSRFSGSGSGRDYSFSISNVESEDIASYYCLQYDNSPRTFGGGTKLELKRADAAPTVSIFPPSSEQLTSGGASVVCFLNNFYPKDINVKWKIDGSERQNGVLNSWTDQDSKDSTYSMSSTLTLTKDEYERHNSYTCEATHKTSTSPIVKSFNRNEC

CD69 expression; OT-I CD8 T cells with SIINFEKL-pulsed BMDDC, 0.5 micromolar, 57 h: 79% | proliferation (CFSE dilution); OT-I CD8 T cells with SIINFEKL-pulsed BMDDC, 0.5 micromolar, 57 h: 96.1%
B2: LoSTIM 4 (bispecific antibody, mouse IgG2a, kappa)
heavy: EVQVVETGGGLVQPGSSLKLSCESSGFTFSSTWMNWVRQAPGKGLEWVALVKDKYSNYEANYAESVKGRFIISRDDSKNRVYLQMNTLRDQDTATYHCTRSRGYKNWYFDFWGPGTMVTVSSAKTTAPSVYPLAPVCGDTTGSSVTLGCLVKGYFPEPVTLTWNSGSLSSGVHTFPAVLQSDLYTLSSSVTVTSSTWPSQSITCNVAHPASSTKVDKKIEPRGPTIKPCPPCKCPAPNLEGGPSVFIFPPKIKDVLMISLSPIVTCVVVDVSEDDPDVQISWFVNNVEVHTAQTQTHREDYNSTLRVVSALPIQHQDWMSGKAFACAVNNKDLPAPIERTISKPKGSVRAPQVYVLPPPEEEMTKKQVTLTCMVTDFMPEDIYVEWTNNGKTELNYKNTEPVLDSDGSYFMYSKLRVEKKNWVERNSYSCSVVHEGLHNHHTTKSFSRTPGKGGGGAGGGGDVALTQTPVAQPVTLGDQASISCRSSQSLVHSNGRTYLEWYLQKPGQSPQLLIYKVSNRFSGVPDRFIGSGSGSDFTLTISRVEPEDLGVYYCFQATHDPNTFGAGTKLELKGGGGSGGGGSGGGGSQVQLQQSGAELVKPGSSVKISCKASGYTFTSHFIHWIKQQPGNGLEWIGGIYPGDGDTEYNQQFNGKATLTADKSSSTAYMRLSSLTSEDSAVYFCATRVPSYWFFDFWGPGTMVTVSS
light: B1 light

proliferation by CFSE dilution; BALB/c CD8 T cells with allogeneic C57B6 BMDDC, 0.5 micromolar, 84 h: 63.6% | proliferation by CFSE dilution; OT-I CD8 T cells with SIINFEKL-pulsed C57B6 BMDDC, 0.5 micromolar, 72 h: 43.9%
B3: LoSTIM 7 (bispecific antibody, mouse IgG2a, kappa)
heavy: DVALTQTPVAQPVTLGDQASISCRSSQSLVHSNGRTYLEWYLQKPGQSPQLLIYKVSNRFSGVPDRFIGSGSGSDFTLTISRVEPEDLGVYYCFQATHDPNTFGAGTKLELKGGGGSGGGGSGGGGSQVQLQQSGAELVKPGSSVKISCKASGYTFTSHFIHWIKQQPGNGLEWIGGIYPGDGDTEYNQQFNGKATLTADKSSSTAYMRLSSLTSEDSAVYFCATRVPSYWFFDFWGPGTMVTVSSGGGGAGGGGDVQLVESGGGLVQPGGSRKLSCAASGFTFSSFGMHWVRQAPEKGLEWVAYISSGSNTIYYADTVKGRFTISRDNPKNTLFLQMTSLRSEDTAMYYCALTTGSWFAYWGQGTLVTVSAAKTTAPSVYPLAPVCGDTTGSSVTLGCLVKGYFPEPVTLTWNSGSLSSGVHTFPAVLQSDLYTLSSSVTVTSSTWPSQSITCNVAHPASSTKVDKKIEPRGPTIKPCPPCKCPAPNLEGGPSVFIFPPKIKDVLMISLSPIVTCVVVDVSEDDPDVQISWFVNNVEVHTAQTQTHREDYNSTLRVVSALPIQHQDWMSGKAFACAVNNKDLPAPIERTISKPKGSVRAPQVYVLPPPEEEMTKKQVTLTCMVTDFMPEDIYVEWTNNGKTELNYKNTEPVLDSDGSYFMYSKLRVEKKNWVERNSYSCSVVHEGLHNHHTTKSFSRTPGK
light: DILLTQSPAILSVRPGERVSFSCRASQSLGTSIHWYQQRTDGSPRLLIKYASESISGIPSRFSGSGSGTDFTLSINSVESEDIADYYCQQSNSWPITFGAGTKLELKRADAAPTVSIFPPSSEQLTSGGASVVCFLNNFYPKDINVKWKIDGSERQNGVLNSWTDQDSKDSTYSMSSTLTLTKDEYERHNSYTCEATHKTSTSPIVKSFNRNEC

proliferation by CFSE dilution; BALB/c CD8 T cells with allogeneic C57B6 BMDDC, 0.5 micromolar, 84 h: 69.1% | proliferation by CFSE dilution; OT-I CD8 T cells with SIINFEKL-pulsed C57B6 BMDDC, 0.5 micromolar, 72 h: 78.4%
B4: LoSTIM 8 (bispecific antibody, mouse IgG2a, kappa)
heavy: DVQLVESGGGLVQPGGSRKLSCAASGFTFSSFGMHWVRQAPEKGLEWVAYISSGSNTIYYADTVKGRFTISRDNPKNTLFLQMTSLRSEDTAMYYCALTTGSWFAYWGQGTLVTVSAAKTTAPSVYPLAPVCGDTTGSSVTLGCLVKGYFPEPVTLTWNSGSLSSGVHTFPAVLQSDLYTLSSSVTVTSSTWPSQSITCNVAHPASSTKVDKKIEPRGPTIKPCPPCKCPAPNLEGGPSVFIFPPKIKDVLMISLSPIVTCVVVDVSEDDPDVQISWFVNNVEVHTAQTQTHREDYNSTLRVVSALPIQHQDWMSGKAFACAVNNKDLPAPIERTISKPKGSVRAPQVYVLPPPEEEMTKKQVTLTCMVTDFMPEDIYVEWTNNGKTELNYKNTEPVLDSDGSYFMYSKLRVEKKNWVERNSYSCSVVHEGLHNHHTTKSFSRTPGKGGGGAGGGGDVALTQTPVAQPVTLGDQASISCRSSQSLVHSNGRTYLEWYLQKPGQSPQLLIYKVSNRFSGVPDRFIGSGSGSDFTLTISRVEPEDLGVYYCFQATHDPNTFGAGTKLELKGGGGSGGGGSGGGGSQVQLQQSGAELVKPGSSVKISCKASGYTFTSHFIHWIKQQPGNGLEWIGGIYPGDGDTEYNQQFNGKATLTADKSSSTAYMRLSSLTSEDSAVYFCATRVPSYWFFDFWGPGTMVTVSS
light: B3 light

Source: patent US20230203157A1 (published 2023)
